Test results published in PMC6818471.

B1: GLUT9a: N90Q (protein)
parent chain: MARKQNRNSKELGLVPLTDDTSHAGPPGPGRALLECDHLRSGVPGGRRRKDWSCSLLVASLAGAFGSSFLYGYNLSVVNAPTPYIKAFYNESWERRHGRPIDPDTLTLLWSVTVSIFAIGGLVGTLIVKMIGKVLGRKHTLLANNGFAISAALLMACSLQAGAFEMLIVGRFIMGIDGGVALSVLPMYLSEISPKEIRGSLGQVTAIFICIGVFTGQLLGLPELLGKESTWPYLFGVIVVPAVVQLLSLPFLPDSPRYLLLEKHNEARAVKAFQTFLGKADVSQEVEEVLAESRVQRSIRLVSVLELLRAPYVRWQVVTVIVTMACYQLCGLNAIWFYTNSIFGKAGIPPAKIPYVTLSTGGIETLAAVFSGLVIEHLGRRPLLIGGFGLMGLFFGTLTITLTLQDHAPWVPYLSIVGILAIIASFCSGPGGIPFILTGEFFQQSQRPAAFIIAGTVNWLSNFAVGLLFPFIQKSLDTYCFLVFATICITGAIYLYFVLPETKNRTYAEISQAFSKRNKAYPPEEKIDSAVTDGKINGRP
B2: GLUT9b: N61Q (protein)
parent chain: MKLSKKDRGEDEESDSAKKKLDWSCSLLVASLAGAFGSSFLYGYNLSVVNAPTPYIKAFYNESWERRHGRPIDPDTLTLLWSVTVSIFAIGGLVGTLIVKMIGKVLGRKHTLLANNGFAISAALLMACSLQAGAFEMLIVGRFIMGIDGGVALSVLPMYLSEISPKEIRGSLGQVTAIFICIGVFTGQLLGLPELLGKESTWPYLFGVIVVPAVVQLLSLPFLPDSPRYLLLEKHNEARAVKAFQTFLGKADVSQEVEEVLAESRVQRSIRLVSVLELLRAPYVRWQVVTVIVTMACYQLCGLNAIWFYTNSIFGKAGIPPAKIPYVTLSTGGIETLAAVFSGLVIEHLGRRPLLIGGFGLMGLFFGTLTITLTLQDHAPWVPYLSIVGILAIIASFCSGPGGIPFILTGEFFQQSQRPAAFIIAGTVNWLSNFAVGLLFPFIQKSLDTYCFLVFATICITGAIYLYFVLPETKNRTYAEISQAFSKRNKAYPPEEKIDSAVTDGKINGRP

What was measured:
[1] = [14C]-urate uptake, oocytes co-expressing ITM2B; settings: glycan lost
[2] = [14C]-urate uptake, oocytes co-expressing TMEM85; settings: glycan lost
[3] = [14C]-urate uptake, polarized or depolarized oocytes; settings: glycan lost
[4] = confocal immunofluorescence, HEK 293T; settings: glycan lost; control: wild type GLUT9b

Protein | other: inhibition of urate uptake by ITM2B, other: percent inhibition of uptake ([1]; control: wild type GLUT9a) | other: inhibition of urate uptake by TMEM85 ([2]; control: wild type GLUT9a) | other: transport activity ([3]; control: wild type GLUT9a) | localisation_or_trafficking [4] | other: inhibition of urate uptake by ITM2B, other: percent inhibition of uptake ([1]; control: wild type GLUT9b) | other: inhibition of urate uptake by TMEM85 ([2]; control: wild type GLUT9b) | other: transport activity ([3]; control: wild type GLUT9b)
B1 | no change, ∼65–70 vs 65–70 | no change | no change |  |  |  | 
B2 |  |  |  | no change | no change, ∼65–70 vs 65–70 | no change | no change
